Laboratory results taken from the supplement of paper PMC12783771.
± gives the standard deviation of the averaged measurements.

B1: library; numbered along this chain (parent)
chain: MNIQIGELAKRTACPVVTIRFYEQEGLLPPPGRSRGNFRLYGEEHVERLQFIRHCRSLDMPLSDVRTLLSYRKRPDQDCGEVNMLLDEHIRQVESRIGALLELKHHLVELREACSGARPAQSCGILQGLSDCVCDTRGTTAHPSD

Columns and labels:
[1] = variants of: B1; assay: sfGFP reporter fluorescence (15 h) (µM FITC); higher = higher leak; conditions: library round: Round 0; ligand: none
Method in brief: (§1)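 An Echo normalized PCR-made linear PbrR templates to 5 nM and assembled 1 μL reactions in BL21 Star (DE3) PANOx-SP extract carrying the pPbrR-sfGFP reporter plasmid and 30 μg/mL GamS. Reactions received 1 µM lead chloride, 30 µM zinc acetate or no metal and stood 15 hr at 30 °C. Fluorescence at 485/528 nm (Synergy Neo2) was converted with FITC standard curves made in 50 mM sodium borate pH 8.5. Endpoint sfGFP signal is given in µM FITC, from up to three biological replicates.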

[2] = variants of: B1; assay: sfGFP reporter fluorescence (15 h) (µM FITC); higher = stronger transcriptional activation; conditions: library round: Round 0
Method in brief: as §1

| Variant | sfGFP reporter fluorescence [1] | sfGFP reporter fluorescence ([2]; ligand: 1 µM Pb) | sfGFP reporter fluorescence ([2]; ligand: 30 µM Zn) |
| --- | --- | --- | --- |
| H89A | 0.05992 ± 0.00026 | 0.05699 ± 0.00026 | 0.06725 ± 0.00026 |
| H89V | 0.0592 ± 0.0034 | 0.0575 ± 0.0021 | 0.05681 ± 0.00052 |
| H89R | 0.0685 ± 0.0042 | 0.0936 ± 0.0054 | 0.975 ± 0.017 |
| H89N | 0.0597 ± 0.001 | 0.0663 | 0.261 ± 0.015 |
| H89D | 0.0623 ± 0.0021 | 0.0669 ± 0.0044 | 0.08283 ± 0.00052 |
| H89E | 0.0647 ± 0.0023 | 0.0795 ± 0.0031 | 0.139 ± 0.0023 |
| H89T | 0.0614 ± 0.00078 | 0.0579 ± 0.0021 | 0.0588 ± 0.0054 |
| H89M | 0.061 ± 0.0013 | 0.06359 ± 0.00026 | 0.1426 ± 0.00052 |
| H89L | 0.059 ± 0.0026 | 0.0553 ± 0.0021 | 0.0649 ± 0.0042 |
| H89I | 0.0539 ± 0.0047 | 0.0537 ± 0.0018 | 0.0594 ± 0.0021 |
| H89F | 0.0581 ± 0.0039 | 0.0566 ± 0.0039 | 0.063 ± 0.0021 |
| H89Q | 0.0645 ± 0.0047 | 0.108 ± 0.0029 | 1.3 ± 0.08 |
| H89K | 0.0601 ± 0.0026 | 0.0599 ± 0.0013 | 0.161 ± 0.0036 |
| H89W | 0.0607 ± 0.0023 | 0.0585 ± 0.00078 | 0.06084 ± 0.00052 |
| H89Y | 0.0596 ± 0.0018 | 0.0574 ± 0.0018 | 0.0566 ± 0.0023 |
| H89S | 0.0572 ± 0.001 | 0.0579 ± 0.0031 | 0.0627 ± 0.001 |
| H89P | 0.0566 ± 0.0029 | 0.05498 ± 0.00052 | 0.0564 |
| H89G | 0.0559 ± 0.0044 | 0.05443 ± 0.00026 | 0.0577 ± 0.0023 |
| H89C | 0.0553 ± 0.0015 | 0.0574 ± 0.0039 | 0.0614 ± 0.0034 |
| E88A | 0.061 ± 0.0034 | 0.0859 ± 0.0091 | 0.965 ± 0.07 |
| L85M | 0.05754 ± 0.00052 | 0.06945 ± 0.00026 | 0.597 ± 0.017 |
| L85K | 0.0585 ± 0.0029 | 0.0566 ± 0.00078 | 0.0645 ± 0.001 |

| Variant | sfGFP reporter fluorescence [1] | sfGFP reporter fluorescence ([2]; ligand: 1 µM Pb) | sfGFP reporter fluorescence ([2]; ligand: 30 µM Zn) |
| --- | --- | --- | --- |
| L85H | 0.0603 ± 0.0018 | 0.05827 ± 0.00052 | 0.0629 ± 0.00078 |
| L85R | 0.0596 ± 0.0018 | 0.0577 ± 0.00078 | 0.0652 ± 0.001 |
| L85D | 0.0577 ± 0.0013 | 0.0563 ± 0.0013 | 0.0537 ± 0.0013 |
| L85S | 0.059 ± 0.0021 | 0.059 ± 0.0015 | 0.0627 |
| L85E | 0.0605 ± 0.0015 | 0.0586 ± 0.0021 | 0.05662 ± 0.00026 |
| L85C | 0.0607 ± 0.0018 | 0.0577 ± 0.0013 | 0.117 ± 0.0039 |
| L85I | 0.0577 ± 0.00078 | 0.06853 ± 0.00052 | 0.6194 ± 0.0057 |
| L85T | 0.0601 ± 0.0015 | 0.057 ± 0.0013 | 0.1118 ± 0.00052 |
| L85V | 0.0585 ± 0.0018 | 0.0594 ± 0.0026 | 0.1479 ± 0.0013 |
| L85F | 0.057 ± 0.0029 | 0.0559 ± 0.0013 | 0.0828 ± 0.0021 |
| L85G | 0.0544 ± 0.0023 | 0.0541 ± 0.0013 | 0.0603 ± 0.00078 |
| L85N | 0.0564 ± 0.0021 | 0.0575 ± 0.0015 | 0.0612 ± 0.0015 |
| L85W | 0.0618 ± 0.0018 | 0.0597 ± 0.0036 | 0.157 ± 0.013 |
| L85A | 0.05864 ± 0.00052 | 0.0559 ± 0.0023 | 0.07183 ± 0.00052 |
| L85P | 0.057 ± 0.0023 | 0.05809 ± 0.00026 | 0.0555 ± 0.0013 |
| L85Q | 0.0586 ± 0.001 | 0.0581 ± 0.00078 | 0.0658 ± 0.0023 |
| L85Y | 0.0592 ± 0.0039 | 0.0603 ± 0.00078 | 0.253 ± 0.0096 |
| V65A | 0.0629 ± 0.0013 | 0.0678 ± 0.0052 | 0.153 ± 0.036 |
| D76A | 0.06157 ± 0.00052 | 0.0614 ± 0.0034 | 0.202 ± 0.013 |
| L68K | 0.0608 ± 0.0021 | 0.0566 ± 0.0013 | 0.0638 ± 0.0036 |
| L68V | 0.0603 ± 0.0018 | 0.0632 ± 0.0013 | 0.384 ± 0.035 |
| L68T | 0.0612 ± 0.0015 | 0.0605 ± 0.001 | 0.0717 ± 0.0013 |
